# Results taken from patent US10323078B2, “Isolated peptides and fragments thereof from fibrinogen for use as drugs, particularly in skin inflammatory diseases” (Universite Paris Descartes, priority 2015, dated 2019).
# B1: MKRMVSWSFHKLKTMKHLLLLLLCVFLVKSQGVNDNEEGFFSARGHRPLDKKREEAPSLRPAPPPISGGGYRARPAKAAATQKKVERKAPDAGGCLHADPDLGVLC (protein)
# chain: MKRMVSWSFHKLKTMKHLLLLLLCVFLVKSQGVNDNEEGFFSARGHRPLDKKREEAPSLRPAPPPISGGGRARPAKAAATQKKVERKAPDAGGCLHADPDLGVLCMKRMVSWSFHKLKTMKHLLLLLLCVFLVKSQGVNDNEEGFFSARGHRPLDKKREEAPSLRPAPPPISGGGYRARPAKAAATQKKVERKAPDAGGCLHADPDLGVLC
# modifications: GST fusion; fragment Fg1
# notes: fragment of Bß chain of human fibrinogen having 106 amino acids; recombinant GST-fused peptide expressed in E. coli
# Legend:
# Type in all cases: cell-based, human
# HaCaT cells = test: O2°− production by P. acnes-stimulated HaCaT (spectrofluorimetry, DHE); conditions: bacteria first pretreated, 0.87 to 7 μM
# Procedure: FIG. 14: Dose-dependent inhibition of O2^∘− production by keratinocytes stimulated by P. acnes pre-treated by recombinant peptide. HaCaT cell were incubated for 18 h with P. acnes PIE strain at a concentration adjusted to 0.2 of absorbance at 600 nm (blue bar) and with P. acnes pretreated with recombinant peptide Fg1 (light gray bar) and Fg2 (dark gray bar). Measurement of superoxide anion production was realized by spectrofluorometry as described in Materials and Methods. Control experiment was done on unstimulated HaCaT cell (red bar). Data are means±S.D. of three separate experiments. Statistical significance is indicated by * (P<0.05), ** (P<0.01), *** (P<0.001), and **** (P<0.0001), respectively.
# (§1) For experiences of stimulation with P. acnes, cells were incubated with the P. acnes suspension adjusted at the appropriate concentration, pre-treated for 1 h at 37° C. or not with fibrinogen recombinant peptides Fg1 and Fg2 at the concentrations 0.87, 1.75, 3.5 or 7 μM for the desired period of time at 37° C. in 5% CO2.
# All cells lines (5·10^4 to 10^5 cells/well) were seeded in 96-well plates (Corning Costar, Brumath, France) and treated as previously described. After stimulation, cells were washed three times in PBS and incubated with 100 μl per wells of 5 μM DHE (for determination of O2^●−) or 5 μM H2-DCFDA (for determination of H2O2) for 30 min as described previously and fluorescence intensity was recorded every hour over a period of 5 h. Fluorescence excitation/emission maxima were for DHE: 480/610 nm and for H2-DCFDA: 507/525 nm. At the end of the experiment, the number of adherent cells was evaluated by the crystal violet assay as described below. […] Levels of ROS were calculated in each sample as follows: reactive oxygen species rate (arbitrary units/min/10^6 cells)=(fluorescence intensity [arbitrary units] at T5h—fluorescence intensity [arbitrary units] at To/300 minutes/number of adherent cells as measured by the crystal violet assay, and were expressed as arbitrary unit (A.U.). […]
# [1] = test system: HaCaT, NHDK, ThP1, MRC5 and HDF cell lines; test: Cell viability (MTT) after treatment with Fg1 and Fg2 recombinant peptides; conditions: all 5 cell lines; 0.22 to 7 mM for 18 h at 37° C.
# Procedure: FIG. 10: Evaluation of cell viability after treatment with the Fg1 and Fg2 recombinant peptides. Human immortalized and primary keratinocyte cell lines HaCaT and NHDK; immortalized monocytes cell line ThP1, and immortalized and primary fibroblast cell lines MRCS and HDF were incubated with Fg1 and Fg2 recombinant peptides with concentrations ranging from 0.22 to 7 mM for 18 h at 37° C. Cell viability was assessed using the MTT assay as described in Materials and Methods.
# Crystal violet staining was used to determine the number of adherent cells in 96-well plates. Briefly, after incubation with the test compound, the culture medium was discarded and the cells were incubated with a 0.05% crystal violet solution (Sigma) for 30 min at room temperature. After washing with PBS, 100% methanol was added, and the absorbance was measured spectrophotometrically at 540 nm on an ELISA multiwell reader. The MTT ([…]) assay was performed to test cell viability in 96-well plates. […] After thorough mixing, the absorbance was measured at 540 nm.
# Whole P. acnes bacteria are labelled by biotinylation, pre-treated or not with the peptides and contacted with the various cell lines. After removal of the unfixed bacteria, the adhesion activity was measured spectrophotometrically by using the streptavidin-peroxidase conjugate and a chromogenic substrate.
# HDF cells = test: H2O2 production by P. acnes-stimulated HDF; conditions: 0.87 to 7 μM
# Procedure: as §1
# All cells lines (5·10^4 to 10^5 cells/well) were seeded in 96-well plates (Corning Costar, Brumath, France) and treated as previously described. After stimulation, cells were washed three times in PBS and incubated with 100 μl per wells of 5 μM DHE (for determination of O2^●−) or 5 μM H2-DCFDA (for determination of H2O2) for 30 min as described previously and fluorescence intensity was recorded every hour over a period of 5 h. Fluorescence excitation/emission maxima were for DHE: 480/610 nm and for H2-DCFDA: 507/525 nm. At the end of the experiment, the number of adherent cells was evaluated by the crystal violet assay as described below. O2^●−, and H2O2 were assayed by spectrofluorimetry on a Fusion spectrofluorimeter (PackardBell, Paris, France). Levels of ROS were calculated in each sample as follows: reactive oxygen species rate (arbitrary units/min/10^6 cells)=(fluorescence intensity [arbitrary units] at T5h—fluorescence intensity [arbitrary units] at To/300 minutes/number of adherent cells as measured by the crystal violet assay, and were expressed as arbitrary unit (A.U.).
# To assess the efficacy of Fg1 recombinant peptide, the production of O2^∘− and H2O2 by HaCaT cells NHDK, THP-1, MRC5 and HDF stimulated by pretreated P. acnes strains 6919, RON and PIE was measured. The amount of ROS produced was compared to that produced by the stimulated cells with untreated bacteria. Production baseline was obtained by measuring ROS on unstimulated cells. The production of IL-1ß, IL-8, IL-12 and TNF-α was also measured in all conditions cited above. The measurement of the production of ROS is performed by spectrofluorimetry in the presence of specific fluorochromes directly on the monolayer cell. Measurement of cytokine production was performed in parallel on the cell culture supernatant.
# Two sets of experiments were implemented: 1) The cells were stimulated (18 h at 37° C.) by P. acnes strains previously pretreated with Fg1 and Fg2 peptides at the final concentrations ranging from 0.87 to 7 μM for 1 h at 37° C.; and 2) The cells were pretreated first with Fg1 and Fg2 peptides at the final concentrations ranging from 0.87 to 7 μM for 24 h at 37° C. and stimulated (18 h at 37° C.) by P. acnes strains.
# To assess the efficacy of the small Fg1-related peptide, the production of H2O2 by several cell lines (HaCaT, NHDK, THP-1, MRC5 and HDF) stimulated by three P. acnes strains 6919, RON and PIE was measured, in presence or not with the small peptides. The amount of H2O2 produced is compared to that produced by the stimulated cells with untreated bacteria. Production baseline is obtained by measuring H2O2 on unstimulated cells. The measurement of the production of H2O2 is performed by spectrofluorimetry in the presence of specific fluorochromes directly on the monolayer cell.
# Two sets of experiments have been implemented: • I) The cells are stimulated (18 h at 37° C.) by P. acnes strains previously pretreated with Fg1.1, Fg1.2, Fg1.3, Fg1.4, and Fg1.5 small peptides at the final concentrations ranging from 2.5 to 20 μM for 1 h at 37° C.; • II) The cells are pretreated first with the five small peptides at the final concentrations ranging from 2.5 to 20 μM for 24 h at 37° C. and stimulated (18 h at 37° C.) by P. acnes strains.
molecule,measurement,setting,value
B1,Inhibition of Superoxide anion (O2°−) production,"HaCaT cells; P. acnes 6919, set I",pos
same,Inhibition of Superoxide anion (O2°−) production,"HaCaT cells; P. acnes PIE, set I",pos
same,Inhibition of Superoxide anion (O2°−) production,"HaCaT cells; P. acnes RON, set I",pos
same,"Cytotoxic activity (cell viability, MTT)",[1],no cytotoxic activity
same,Inhibition of Hydrogen peroxide (H2O2) production,"HDF cells; P. acnes 6919, set I, bacteria first pretreated",pos
same,Inhibition of Hydrogen peroxide (H2O2) production,"HDF cells; P. acnes 6919, set II, cells first pretreated",pos
same,Inhibition of Hydrogen peroxide (H2O2) production,"HDF cells; P. acnes PIE, set I, bacteria first pretreated",pos
same,Inhibition of Hydrogen peroxide (H2O2) production,"HDF cells; P. acnes PIE, set II, cells first pretreated",pos
same,Inhibition of Hydrogen peroxide (H2O2) production,"HDF cells; P. acnes RON, set I, bacteria first pretreated",pos
same,Inhibition of Hydrogen peroxide (H2O2) production,"HDF cells; P. acnes RON, set II, cells first pretreated",pos
